Blank lines part the entries; values can stand above or below the binder they belong to.
Experiments:
[1] = target: T1, rHuman IGF-1 sR, CF (R&D Systems Cat#391-GR) (human, UniProt P08069 31-932); test: Multispot ECL (MSD), antigen spotted on plate, Fab 0.0625 uM; blank spot 1738
T1 construct: Bought recombinant soluble receptor; also called insulin-like growth factor-1 soluble receptor

[2] = target: T2, rHuman EGF R/Fc Chimera, CF (R&D Systems Cat#344-ER) (human, UniProt P00533 25-645); test: as above
T2 construct: Bought recombinant protein; also called epidermal growth factor receptor (EGF R); Fc part of the bought chimera not given

[3] = target: T3, rHuman Erythropoietin R/Fc Chimera, CF (R&D Systems Cat#963-ER) (human, UniProt P19235 25-250); test: as above
T3 construct: Bought recombinant protein; also called EPO R/Fc; Epo R; Fc part of the bought chimera not given
T3 sequence (looked up): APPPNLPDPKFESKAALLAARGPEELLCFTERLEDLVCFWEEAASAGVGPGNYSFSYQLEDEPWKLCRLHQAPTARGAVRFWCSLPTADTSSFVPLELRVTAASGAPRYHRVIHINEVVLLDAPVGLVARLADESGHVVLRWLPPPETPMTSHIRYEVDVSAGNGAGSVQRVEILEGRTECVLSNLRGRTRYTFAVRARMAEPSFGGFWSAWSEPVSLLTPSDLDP

[4] = target: T1, rHuman IGF-1 sR, CF (R&D Systems …); test: Multispot ECL (MSD), antigen spotted on plate, Fab 0.01563 uM; blank spot 906
[5] = target: T2, rHuman EGF R/Fc Chimera, CF (R&D …); test: as above
[6] = target: T3, rHuman Erythropoietin R/Fc Chimera, CF …; test: as above
[7] = target: T1, rHuman IGF-1 sR, CF (R&D Systems …); test: Multispot ECL (MSD), antigen spotted on plate, Fab 0.25 uM; blank spot 6344
[8] = target: T2, rHuman EGF R/Fc Chimera, CF (R&D …); test: as above
[9] = target: T3, rHuman Erythropoietin R/Fc Chimera, CF …; test: as above
[10] = target: T1, rHuman IGF-1 sR, CF (R&D Systems …); test: Multispot ECL (MSD), antigen spotted on plate, Fab 0.00391 uM; blank spot 576
[11] = target: T2, rHuman EGF R/Fc Chimera, CF (R&D …); test: as above
[12] = target: T3, rHuman Erythropoietin R/Fc Chimera, CF …; test: as above
[13] = target: T4, rHuman EGF R/Fc Chimera, CF (R&D Systems Cat#344-ER) (human, UniProt P00533 25-645); test: ECL multispot (MSD) assay, antigen spotted on plate, 20 nM Fab;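 further: purified Fab bound to plate-spotted antigen for 1 h at 20 °C, labelled detection antibody added, ratio of antigen ECL signal to same-well blank, ratio ≥4 counted as binder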
T4 construct: Bought recombinant protein; also called epidermal growth factor receptor; Fc part of the bought chimera not given

[14] = target: T5, Recombinant Human DLL4 (R&D Systems Cat#1506-D4/CF) (human, UniProt Q9NR61 27-524); test: as above
T5 construct: Bought recombinant protein; also called delta-like protein 4; rHuman DLL4

[15] = target: T6, rHuman P-Cadherin/Fc Chimera, CF (R&D Systems Cat#861-PC) (human, UniProt P22223 108-654); test: as above
T6 construct: Bought recombinant protein; Fc part of the bought chimera not given

[16] = target: T7, rHuman Notch-1/Fc Chimera, CF (R&D Systems Cat#3647-TK) (human, UniProt P46531 19-526); test: as above
T7 construct: Bought recombinant protein; Fc part of the bought chimera not given

[17] = target: T8, rHuman HGF R/c-MET/Fc Chimera, CF (R&D Systems Cat#358-MT/CF) (human, UniProt P08581 25-932); test: as above
T8 construct: Bought recombinant protein; also called HGF R/Fc; hepatocyte growth factor receptor; Fc part of the bought chimera not given
T8 sequence (P08581 25-932, change not shown): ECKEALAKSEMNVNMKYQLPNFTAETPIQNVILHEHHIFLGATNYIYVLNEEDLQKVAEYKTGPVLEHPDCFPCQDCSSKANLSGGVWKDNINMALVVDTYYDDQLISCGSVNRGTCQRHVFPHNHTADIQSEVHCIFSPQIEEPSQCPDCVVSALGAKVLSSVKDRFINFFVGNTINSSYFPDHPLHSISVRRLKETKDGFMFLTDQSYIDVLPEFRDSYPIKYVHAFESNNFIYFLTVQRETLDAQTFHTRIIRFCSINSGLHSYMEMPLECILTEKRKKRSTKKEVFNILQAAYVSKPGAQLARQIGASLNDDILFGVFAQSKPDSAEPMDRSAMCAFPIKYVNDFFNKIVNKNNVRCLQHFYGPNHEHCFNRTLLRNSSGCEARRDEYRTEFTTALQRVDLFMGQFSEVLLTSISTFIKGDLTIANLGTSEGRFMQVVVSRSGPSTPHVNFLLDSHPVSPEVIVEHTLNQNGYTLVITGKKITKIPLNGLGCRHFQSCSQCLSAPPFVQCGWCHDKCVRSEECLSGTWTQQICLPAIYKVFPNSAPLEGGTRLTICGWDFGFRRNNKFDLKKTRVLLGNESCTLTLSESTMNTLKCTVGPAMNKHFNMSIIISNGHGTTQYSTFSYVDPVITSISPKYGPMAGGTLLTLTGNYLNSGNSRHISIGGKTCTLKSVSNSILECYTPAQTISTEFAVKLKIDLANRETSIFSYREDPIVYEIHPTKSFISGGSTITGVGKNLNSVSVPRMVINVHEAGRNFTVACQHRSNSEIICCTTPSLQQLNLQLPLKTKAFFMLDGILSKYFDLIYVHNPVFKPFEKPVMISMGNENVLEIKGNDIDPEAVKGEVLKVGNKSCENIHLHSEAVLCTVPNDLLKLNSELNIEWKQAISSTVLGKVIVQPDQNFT

[18] = target: T9, rHuman Erythropoietin R/Fc Chimera, CF (R&D Systems Cat#963-ER) (human, UniProt P19235 25-250); test: as above
T9 construct: Bought recombinant protein; also called EPO R; EPO R/Fc; Fc part of the bought chimera not given
T9 sequence (looked up): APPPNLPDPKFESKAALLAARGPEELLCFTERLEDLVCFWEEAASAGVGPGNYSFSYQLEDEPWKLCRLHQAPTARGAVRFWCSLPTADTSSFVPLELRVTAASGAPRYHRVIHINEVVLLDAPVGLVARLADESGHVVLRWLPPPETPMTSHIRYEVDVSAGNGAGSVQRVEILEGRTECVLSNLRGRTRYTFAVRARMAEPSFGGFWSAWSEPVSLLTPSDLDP

[19] = target: T10, rHuman ErbB2/Fc Chimera, CF (R&D Systems Cat#1129-ER) (human, UniProt P04626 23-652); test: as above
T10 construct: Bought recombinant protein; also called human epidermal growth factor 2 receptor; Fc part of the bought chimera not given

[20] = target: T11, rHuman CD44/Fc Chimera, CF (R&D Systems Cat#3660-CD) (human, UniProt P16070 21-220); test: as above
T11 construct: Bought recombinant protein; Fc part of the bought chimera not given

[21] = target: T12, rHuman IGF-1 sR, CF (R&D Systems Cat#391-GR) (human, UniProt P08069 31-932); test: as above
T12 construct: Bought soluble receptor; also called insulin-like growth factor-1 soluble receptor

- ECL signal [1]: 3150
- ECL signal [2]: 94800
- ECL signal [3]: 21100
- ECL signal [4]: 1740
- ECL signal [5]: 70800
- ECL signal [6]: 11300
- ECL signal [7]: 11000
- ECL signal [8]: 117000
- ECL signal [9]: 49200
- ECL signal [10]: 822
- ECL signal [11]: 35900
- ECL signal [12]: 5020
B1: Fab VH1-46_IGHD2-15*01_IGHJ2*01 & L2_IGKJ1*01 (Fab, V domains shown)
VH: QVQLVQSGAEVKKPGASVKVSCKASGYTFTSYYMHWVRQAPGQGLEWMGIINPSGGSTSYAQKFQGRVTMTRDTSTSTVYMELSSLRSEDTAVYYCAREGYCSGGSCYSYWYFDLWGRGTLVTVSS
VL: not shown
notes: Germline library Fab made in E. coli; VH was cloned into Plasmid A (heavy chain constant region CH1, His6 and Flag tags) and the kappa VL into Plasmid C (kappa CL)

- ECL signal/blank ratio (read-out not given) [13]: 1.4
- ECL signal/blank ratio (read-out not given) [14]: 2.8
- ECL signal/blank ratio (read-out not given) [15]: 2.4
- ECL signal/blank ratio (read-out not given) [16]: 2.1
- ECL signal/blank ratio (read-out not given) [17]: 3.3
- ECL signal/blank ratio (read-out not given) [18]: 2.5
- ECL signal/blank ratio (read-out not given) [19]: 1.6
- ECL signal/blank ratio (read-out not given) [20]: 1.4
- ECL signal/blank ratio (read-out not given) [21]: 1.3
B2: Fab VH3-23_IGHD2-21*01>3_IGHJ6*01 H100E/S108P/Y113G Y59A & V2-13_IGLJ2*01 (Fab, V domains shown)
VH: EVQLLESGGGLVQPGGSLRLSCAASGFTFSSYAMSWVRQAPGKGLEWVSSISGSGGSTAYADSVKGRFTISRDNSKNTLYLQMNSLRAEDTAVYYCAKEEIVVVIAIPYYYYGYGMDVWGQGTLVTVSS
VL: SSELTQDPAVSVALGQTVRITCQGDSLRSYYASWYQQKPGQAPVLVIYGKNNRPSGIPDRFSGSSSGNTASLTITGAQAEDEADYYCNSRDSSGNHLVVFGGGTKLTVL
notes: Tested as a Fab made in E. coli; also called EPG Y59A

— patent US20120316071A1 (published 2012)
